CN113845595A (FUZHOU MAIXIN BIOTECHNOLOGY DEV CO LTD, dated 2021)

Target: T1, GH蛋白 (垂体瘤组织中的内源GH) (human, UniProt P01241 27-217)
T1 construct: Endogenous antigen detected by immunohistochemistry in pituitary tumour samples; also called 人GH蛋白
Assay: immunohistochemistry on 9 pituitary tumour samples

T1 sequence (P01241 27-217 limits assumed): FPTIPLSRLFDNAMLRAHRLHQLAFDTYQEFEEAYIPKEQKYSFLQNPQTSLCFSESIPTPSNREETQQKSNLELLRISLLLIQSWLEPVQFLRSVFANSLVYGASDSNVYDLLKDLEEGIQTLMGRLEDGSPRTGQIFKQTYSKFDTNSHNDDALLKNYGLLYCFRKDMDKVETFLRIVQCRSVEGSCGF

B1: 抗GH蛋白单克隆抗体(9D5D2A9) (antibody, V domains shown)
VH: QVQLKESGPGLVAPSQSLSITCTVSGFSLTNYGIHWVRQPPGKGLEWLGLIWSGGSTKYNSALMSRLSISRDNSKSQVFLKMNSLQSDDTAMYYCVRDELYAYWGQGTLVTVSA
VL: DIVMTQSHKFMSTSVGDRVSITCKASQDVGPTVAWYQQKPGQSPKLLIYWASTRHTGVPDRFTGSGYGTDFTLTISNVQSEDLADYFCQQYSSYPFTFGSGTKLEIK
notes: also called GH单克隆抗体; CGMCC NO.22315
  binding result: binds
